Common to all, as to assay: MST; YFP-fused partner constant at 100 nM, non-fluorescent protein titrated (16 two-fold dilutions); 20 mM Hepes pH 7.0, 100 mM NaCl, 1 mM EGTA, 0.5 mM TCEP, 0.05% Tween 20; Monolith NT.115
Holding throughout (conditions): both partners purified

One assay deals with T1, YFP-Harmonin NPDZ1.PDZ2 (human, UniProt Q9Y6N9-1 1-301).
T1 construct: Harmonin-a1 (USH1C), human, residues 1-301 of UniProt Q9Y6N9-1; also called ^YFPNPDZ1.PDZ2; source: E. coli BL21 (DE3) Rosetta, purified (Glutathione Sepharose 4B, size-exclusion chromatography)
T1 sequence (looked up): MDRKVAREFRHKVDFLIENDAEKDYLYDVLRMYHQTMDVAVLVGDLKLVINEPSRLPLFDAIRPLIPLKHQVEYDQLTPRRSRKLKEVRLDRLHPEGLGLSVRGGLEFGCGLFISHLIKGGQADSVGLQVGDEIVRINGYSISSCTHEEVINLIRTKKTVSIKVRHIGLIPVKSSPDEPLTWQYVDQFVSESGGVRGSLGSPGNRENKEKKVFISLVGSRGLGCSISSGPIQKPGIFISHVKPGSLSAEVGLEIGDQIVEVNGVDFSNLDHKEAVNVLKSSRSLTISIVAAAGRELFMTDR

Another assay addresses T2, Harmonin NPDZ1.PDZ2 (human, UniProt Q9Y6N9-1 1-301).
T2 construct: Harmonin-a1 (USH1C), human, N-terminal domain, PDZ1 and PDZ2, residues 1-301 of UniProt Q9Y6N9-1; source: E. coli BL21 (DE3) Rosetta, purified (Glutathione Sepharose 4B, size-exclusion chromatography)
T2 sequence (looked up): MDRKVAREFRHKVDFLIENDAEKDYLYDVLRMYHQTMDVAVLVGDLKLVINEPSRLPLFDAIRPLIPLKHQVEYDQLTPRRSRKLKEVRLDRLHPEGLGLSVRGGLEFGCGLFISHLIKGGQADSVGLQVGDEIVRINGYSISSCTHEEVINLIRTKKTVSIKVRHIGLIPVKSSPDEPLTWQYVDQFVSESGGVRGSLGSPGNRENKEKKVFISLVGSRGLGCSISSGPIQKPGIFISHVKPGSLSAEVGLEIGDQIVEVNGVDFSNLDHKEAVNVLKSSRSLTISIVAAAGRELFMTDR

Assay [1] concerns the target T3, Harmonin NPDZ1 (non-fluorescent, as used in MST and SEC-MALS) (human, UniProt Q9Y6N9-1 1-197).
T3 construct: Harmonin-a1 (USH1C), human, N-terminal domain and PDZ1, residues 1-197 of UniProt Q9Y6N9-1; source: E. coli BL21 (DE3) Rosetta, purified (Glutathione Sepharose 4B, size-exclusion chromatography)
T3 sequence (looked up): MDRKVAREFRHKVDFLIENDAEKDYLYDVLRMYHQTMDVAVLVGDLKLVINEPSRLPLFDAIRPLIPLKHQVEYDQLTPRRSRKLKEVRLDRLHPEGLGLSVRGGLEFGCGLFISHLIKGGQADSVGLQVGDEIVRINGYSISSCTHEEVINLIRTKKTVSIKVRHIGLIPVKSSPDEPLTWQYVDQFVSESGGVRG

Assay [2] concerns the target T4, Myo7a MF2 K2118N (deafness mutant) (human, UniProt Q13402-1 1702-2215, K2118N).
T4 construct: Myosin 7a, human, MF2, residues 1702-2215 of UniProt Q13402-1, with a deafness missense mutation; source: E. coli, purified similarly as wild type (Histrap, CaptoQ, gel filtration)
T4 sequence (looked up): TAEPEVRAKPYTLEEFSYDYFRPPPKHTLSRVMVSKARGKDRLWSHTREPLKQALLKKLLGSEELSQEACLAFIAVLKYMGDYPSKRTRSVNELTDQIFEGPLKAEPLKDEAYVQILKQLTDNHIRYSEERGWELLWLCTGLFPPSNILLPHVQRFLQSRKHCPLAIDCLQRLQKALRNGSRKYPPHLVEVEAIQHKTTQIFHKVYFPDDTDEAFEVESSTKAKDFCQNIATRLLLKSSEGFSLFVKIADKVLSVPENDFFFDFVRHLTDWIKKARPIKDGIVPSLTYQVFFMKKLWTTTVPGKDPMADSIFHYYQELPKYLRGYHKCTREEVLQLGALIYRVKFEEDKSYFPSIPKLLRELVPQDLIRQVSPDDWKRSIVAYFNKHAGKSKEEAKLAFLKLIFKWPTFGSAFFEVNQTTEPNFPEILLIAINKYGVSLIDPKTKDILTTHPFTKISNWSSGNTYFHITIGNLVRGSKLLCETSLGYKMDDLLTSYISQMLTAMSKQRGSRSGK

In assay [3] the target is T5, Myo7a MF2 G1982E (deafness mutant) (human, UniProt Q13402-1 1702-2215, G1982E).
T5 construct: Myosin 7a, human, MF2, residues 1702-2215 of UniProt Q13402-1, with a deafness missense mutation; source: E. coli, purified similarly as wild type (Histrap, CaptoQ, gel filtration)
T5 sequence (looked up): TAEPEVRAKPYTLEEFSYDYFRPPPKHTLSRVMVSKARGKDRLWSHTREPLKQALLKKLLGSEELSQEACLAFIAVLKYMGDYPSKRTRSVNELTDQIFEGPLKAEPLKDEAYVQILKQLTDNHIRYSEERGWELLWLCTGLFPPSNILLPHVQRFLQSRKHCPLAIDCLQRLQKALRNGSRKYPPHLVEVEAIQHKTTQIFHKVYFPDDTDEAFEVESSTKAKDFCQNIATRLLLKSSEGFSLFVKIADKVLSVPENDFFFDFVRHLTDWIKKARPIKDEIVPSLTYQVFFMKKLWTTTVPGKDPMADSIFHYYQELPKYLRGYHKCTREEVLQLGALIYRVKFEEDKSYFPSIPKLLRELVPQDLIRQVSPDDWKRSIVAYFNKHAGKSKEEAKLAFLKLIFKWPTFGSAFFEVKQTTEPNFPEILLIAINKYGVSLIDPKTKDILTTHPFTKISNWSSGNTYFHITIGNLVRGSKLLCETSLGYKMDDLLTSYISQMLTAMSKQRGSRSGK

By Kd is commonly meant the concentration at which binding is half-saturated. Lower therefore signals tighter binding.

B1: Harmonin-a PDZ3c (non-fluorescent, as used in MST) (domain or fragment, human, UniProt Q9Y6N9-1 428-552, looked up)
chain: QDFRKYEEGFDPYSMFTPEQIMGKDVRLLRIKKEGSLDLALEGGVDSPIGKVVVSAVYERGAAERHGGIVKGDEIMAINGKIVTDYTLAEAEAALQKAWNQGGDWIDLVVAVCPPKEYDDELTFF
notes: Harmonin-a1 (USH1C), human, PDZ3 plus C-terminal peptide, residues 428-552 of UniProt Q9Y6N9-1; The methods say only that samples for ITC or crystallisation were digested with TEV protease; also called PDZ3c (isoA); source: E. coli BL21 (DE3) Rosetta, purified (Glutathione Sepharose 4B, size-exclusion chromatography)
In the case of B1, in the assay with YFP-Harmonin NPDZ1.PDZ2, binding was put at a Kd of 5.2 µM.

B2: YFP-Harmonin-a PDZ3c (domain or fragment, human, UniProt Q9Y6N9-1 428-552, looked up)
chain: QDFRKYEEGFDPYSMFTPEQIMGKDVRLLRIKKEGSLDLALEGGVDSPIGKVVVSAVYERGAAERHGGIVKGDEIMAINGKIVTDYTLAEAEAALQKAWNQGGDWIDLVVAVCPPKEYDDELTFF
notes: Harmonin-a1 (USH1C), human, residues 428-552 of UniProt Q9Y6N9-1; also called ^YFPPDZ3c (isoA); source: E. coli BL21 (DE3) Rosetta, purified (Glutathione Sepharose 4B, size-exclusion chromatography)
In the case of B2, the Kd is 3.2 µM in the assay with Harmonin NPDZ1.PDZ2, 14.2 µM in assay [1], over 60 µM in assay [2] and over 60 µM in assay [3].

(Values after article PMC5493754, “Myosin 7 and its adaptors link cadherins to actin” (Nature Communications, 2017).)
